Assay results reported in PMC8391806 (2021).

Target: p38α kinase (residues 1–360 of human p38α) (human, UniProt Q16539 1-360)
Test: ITC

Sequence of p38α kinase (residues 1–360 of human p38α) (Q16539 whole entry, the tested form may be a part): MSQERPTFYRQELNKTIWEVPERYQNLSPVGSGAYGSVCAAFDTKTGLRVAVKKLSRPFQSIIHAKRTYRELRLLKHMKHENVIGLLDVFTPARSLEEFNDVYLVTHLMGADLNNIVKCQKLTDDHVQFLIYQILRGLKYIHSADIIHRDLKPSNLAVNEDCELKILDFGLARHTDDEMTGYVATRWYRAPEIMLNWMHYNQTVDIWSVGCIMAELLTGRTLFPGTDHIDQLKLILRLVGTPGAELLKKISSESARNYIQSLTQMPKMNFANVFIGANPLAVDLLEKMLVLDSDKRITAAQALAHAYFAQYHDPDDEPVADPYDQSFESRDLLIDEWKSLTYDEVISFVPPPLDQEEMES

B1: regulatory domain of MKK4 (residues 12–86) with N-terminal thioredoxin and 6xHis tag, unlabeled, for ITC (domain or fragment)
chain: SGGGSGSGTPGPVGSPAPGHPAVSSMQGKRKALKLNFANPPFKSTARFTLNPNPTGVQNPHIERLRTHSIESSGK
Binder B1 has a Kd of 4.1 µM.
